B1: Cytosolic beta-glucosidase, O61594 (parent)
chain: MKLLVVLSLVAVACNASIVRQQRRFPDDFLFGTATASYQIEGAWDEDGKGENIWDYMVHNTPEVIRDLSNGDIAADSYHNYKRDVEMMRELGLDAYRFSLSWARILPTGMANEVNPAGIAFYNNYIDEMLKYNITPLITLYHWDLPQKLQELGGFANPLISDWFEDYARVVFENFGDRVKMFITFNEPREICFEGYGSATKAPILNATAMGAYLCAKNLVTAHAKAYYLYDREFRPVQGGQCGITISVNWFGPATPTPEDEMAAELRRQGEWGIYAHPIFSAEGGFPKELSDKIAEKSAQQGYPWSRLPEFTEEEKAFVRGTSDLIGVNHYTAFLVSATERKGPYPVPSLLDDVDTGSWADDSWLKSASAWLTLAPNSIHTALTHLNNLYNKPVFYITENGWSTDESRENSLIDDDRIQYYRASMESLLNCLDDGINLKGYMAWSLMDNFEWMEGYIERFGLYEVDFSDPARTRTPRKAAFVYKHIIKHRVVDYEYEPETMVMTIDEGH

Variants of: B1
Settings: Spodoptera frugiperda, pH 6, Thermal, Potassium phosphate 10mM, transition: 2, structure 5CG0, whole UniProt chain shown
[1] = Differential Scanning Fluorimetry

Variant | Tm (CD) [°C] | change of melting temperature, mutant - wild type (higher = more stable) (CD) [°C] | ddG of mutation (higher = less stable) (CD) [kJ/mol] | unfolding enthalpy (calorimetric) (CD) [kJ/mol] | unfolding free energy (CD) [kJ/mol] | Tm [1] [°C] | change of melting temperature, mutant - wild type (higher = more stable) [1] [°C]
M262F | 45.7 | -0.3 | -2.22 | 384 | 99.3 | 45 | 0
N391A | 44.4 | -1.6 | – | – | – | 46 | 1
E261A | – | – | – | – | – | 46.2 | 1.2
L335A | 38.5 | -7.5 | 3.51 | 231 | 93.6 | 40 | -5
L389A | 46.4 | 0.4 | -2.8 | 339 | 99.9 | 46.6 | 1.6
V336F | 30 | -16 | 8.95 | 216 | 88.2 | 34 | -11
K366A | 41.5 | -4.5 | 5.23 | 312 | 91.9 | 41 | -4
Y420A | 37 | -9 | 5.94 | 200 | 91.2 | 37.2 | -7.8
D260A | – | – | – | – | – | 40.8 | -4.2
S358A | – | – | – | – | – | 42 | -3
N249A | 38.5 | -7.5 | 3.93 | 202 | 93.2 | 39 | -6
S247A | – | – | – | – | – | 45.3 | 0.3
L100A | 46.4 | 0.4 | -3.39 | 222 | 100 | 47.6 | 2.6
F251A | 42.2 | -3.8 | 2.8 | 219 | 94.3 | 42.4 | -2.6
E265A | 44.9 | -1.1 | -1.8 | 214 | 98.9 | 44.9 | -0.1
F334A | 42.9 | -3.1 | 4.64 | 303 | 92.5 | 42.5 | -2.5
A263F | 39.6 | -6.4 | 1.8 | 185 | 95.3 | 40.6 | -4.4
S337F | – | – | – | – | – | 40.4 | -4.58
Y390A | 43 | -3 | 1.42 | 303 | 95.7 | 45.1 | 0.1
L350A | 43.5 | -2.5 | 2.93 | 257 | 94.2 | 43.8 | -1.2

— FireProtDB (doi:10.1111/febs.13659)
